Assay results reported in patent publication US7833548B2, “Bioactive agent release coating and controlled humidity method” (Surmodics, Inc., priority 2002, dated 2010).

Test: Bioactive Agent Release Assay, dextran-TRITC from discs with polymer topcoat coated under controlled humidity
Format: physicochemical
Settings: pEVA (33% vinyl acetate)/pBMA topcoat over dextran-TRITC layer, PBS, 37° C.; FIG. 2
Protocol: Two solutions were prepared in order to provide a coating composition of the presently claimed invention in the form of a two part system. The first solution was an aqueous solution containing the bioactive agent, dextran-TRITC, at a concentration of 15 mg/ml. The second solution contained poly(ethylene-co-vinylacetate) with a vinyl acetate concentration of 33% (w/w) and poly(n-butyl methacrylate), with approximate weight average molecular weight of 337 kilodaltons. The poly(n-butyl methacrylate) and poly(ethylene-co-vinylacetate) were purified by extraction with organic solvents to remove impurities, e.g., monomer residues. The polymers of the second solution were dissolved in tetrahydrofuran at a concentration of 10 mg/ml. […]
A suitable Bioactive Agent Release Assay, as describe herein, can be used to determine the extent and rate of bioactive agent release under physiological conditions. In general it is desirable that less than 50% of the total quantity of the bioactive agent be released in the first 24 hours. It is frequently desirable for quantities of bioactive agent to be released for a duration of at least 30 days.
Except as otherwise provided herein, each coated disc was placed in an amber vial with 4 mls of PBS. […] The concentration of bioactive agent in each PBS sample was determined using UV spectroscopy. […]

tetramethylrhodamine isothiocyanate-Dextran [dextran-TRITC]
release rate of the bioactive agent, topcoat coated at 48% relative humidity versus 10% relative humidity: released at a faster rate
